# Measured values taken from patent publication US20220324977A1 (BEIJING SINOGENE BIOTECHNOLOGY, published 2022).
# B1: caninized monoclonal antibody C1 (antibody, V domains shown)
# VH: EVQLQQSGAELVKPGASVKLSCTASGFNIKDTYMHWVKQRPEQGLEWIGRIDPAIDNTKYDPKFQGKATITADTSSNTAYLQLSSLTSEDTAVYYCASGFYTMDYWGQGTSVTVSS
# VL: QIVLTQSPAIMSASPGEKVTMTCSASSSVTYMYWFQQKPGSSPRLWIYDTSNLVSGVPARFSGSRSGTSYSLTISSMEAEDAATYYCQQYSGHPSSFGSGTKLEIKR
# notes: Variable domains as for M1; also called C1(35.38); 35.38
# B2: caninized monoclonal antibody C3 (antibody, V domains shown)
# VH: EVRLQQSGAELVKPGASVKLSCTASGFNIKDTYLHWLKERPEQGLEWIGRIDPAIGNTRYDPKFQVKATITADTSSNTAYLQLSSLTSEDSAVYYCARGFYGMDYWGQGTSVTVSS
# VL: QIVLTQSPAIMSASPGEKVTMTCSASSSVSYMFWYQQKPGSSPRLWIYDTSNLVSGVPARFSGSRSGTSYSLTISSMEAEDAATYYCQQYSGYPYTFGGGTKLEIKR
# notes: Variable domains as for M3; also called C3(36.39); 36.39
# B3: PD-1 A-M15 (antibody, mouse IgG1, V domains shown)
# VH: EVRLQQSGAELVKPGASVKLSCTASGFNIKDTYLHWLKERPEQGLEWIGRIDPAIGNTRYDPKFQVKATITADTSSNTAYLQLSSLTSEDSAVYYCARGFYGMDYWGQGTSVTVSS
# VL: QIVLTQSPAIMSASPGEKVTMTCSASSSVSYMFWYQQKPGSSPRLWIYDTSNLVSGVPARFSGSRSGTSYSLTISSMEAEDAATYYCQQYSGYPYTFGGGTKLEIK
# notes: Mouse IgG1 kappa, hybridoma supernatant; also called 11E10
# B4: PD-1 A-M23 (antibody, mouse IgG1, V domains shown)
# VH: EVRLQQSGAELVKPGASVKLSCTASGFNIKDTYLHWLKERPEQGLEWIGRIDPAIGNTRYDPKFQVKATITADTSSNTAYLQLSSLTSEDSAVYYCARGFYGMDYWGQGTSVTVSS
# VL: QIVLTQSPAIMSASPGEKVTMTCSASSSVSYMFWYQQKPGSSPRLWIYDTSNLVSGVPARFSGSRSGTSYSLTISSMEAEDAATYYCQQYSGYPYTFGGGTKLEIK
# notes: Mouse IgG1 kappa, hybridoma supernatant; also called 18A08
# B5: PD-1 A-M3 (antibody, mouse IgG1, V domains shown)
# VH: EVRLQQSGAELVKPGASVKLSCTASGFNIKDTYLHWLKERPEQGLEWIGRIDPAIGNTRYDPKFQVKATITADTSSNTAYLQLSSLTSEDSAVYYCARGFYGMDYWGQGTSVTVSS
# VL: QIVLTQSPAIMSASPGEKVTMTCSASSSVSYMFWYQQKPGSSPRLWIYDTSNLVSGVPARFSGSRSGTSYSLTISSMEAEDAATYYCQQYSGYPYTFGGGTKLEIK
# notes: Mouse IgG1 kappa, hybridoma supernatant; also called 4G01
# B6: PD-1 A-M10 (antibody, mouse IgG1, V domains shown)
# VH: EVRLQQSGAELVKPGASVKLSCTASGFNIKDTYLHWLKERPEQGLEWIGRIDPAIGNTRYDPKFQVKATITADTSSNTAYLQLSSLTSEDSAVYYCARGFYGMDYWGQGTSVTVSS
# VL: QIVLTQSPAIMSASPGEKVTMTCSASSSVSYMFWYQQKPGSSPRLWIYDTSNLVSGVPARFSGSRSGTSYSLTISSMEAEDAATYYCQQYSGYPYTFGGGTKLEIK
# notes: Mouse IgG1 kappa, hybridoma supernatant; also called 8H01
# B7: PD-1 A-M11 (antibody, V domains shown)
# VH: EVQLQQSGAEVVKPGASVKLSCTASGFNIKDTYMHWVKQRPEQGLEWIGRIDPAIGNPKYDPKFQGRATITADTSSNTAYLQLSSLTSEDTAVYYCASGFYAMDCWGQGTSVTVSS
# VL: QIVLTQSPAIMSASPGEKVTMTCSASSSITYMFWYQQKPGSSPRLWIYDTSNLVSGVPARFSGSKSGTSYSLTITSMEAEDAATYYCQQYSGYPSTFGSGTKLEIK
# notes: Mouse IgG1 kappa, hybridoma supernatant; The VL is therefore uncertain; also called 9B04
# B8: PD-1 A-M1 (antibody, mouse IgG1, V domains shown)
# VH: EVQLQQSGAELVKPGASVKLSCTASGFNIKDTYMHWVKQRPEQGLEWIGRIDPAIDNTKYDPKFQGKATITADTSSNTAYLQLSSLTSEDTAVYYCASGFYTMDYWGQGTSVTVSS
# VL: QIVLTQSPAIMSASPGEKVTMTCSASSSVTYMYWFQQKPGSSPRLWIYDTSNLVSGVPARFSGSRSGTSYSLTISSMEAEDAATYYCQQYSGHPSSFGSGTKLEIK
# notes: Mouse IgG1 kappa, tested as hybridoma supernatant; also called 2C08
# Tests used:
# [1] = biological target: T1, canine PD-1 protein amino acids 25-168 with His tag (canine, UniProt A0A090BAM7 25-168); assay: kinetics, PD-1 His 1.1 nM
# T1 construct: Expressed in Expi293F cells; used as immunogen and as antigen in ELISA and Octet; also called PD-1 His
# [2] = biological target: T1, canine PD-1 protein amino acids 25-168 …; assay: kinetics, PD-1 His 4.0 nM
# [3] = biological target: T1, canine PD-1 protein amino acids 25-168 …; assay: kinetics, PD-1 His 12.4 nM
# [4] = biological target: T1, canine PD-1 protein amino acids 25-168 …; assay: kinetics, PD-1 His 37.3 nM
# [5] = biological target: T1, canine PD-1 protein amino acids 25-168 …; assay: kinetics, PD-1 His 111.3 nM
# [6] = biological target: T1, canine PD-1 protein amino acids 25-168 …; assay: kinetics, PD-1 His 333.3 nM
# [7] = biological target: T1, canine PD-1 protein amino acids 25-168 …; assay: kinetics, PD-1 His 1000.0 nM
# [8] = biological target: T1, canine PD-1 protein amino acids 25-168 …; assay: kinetics, global fit over PD-1 His 1.1-1000 nM
# [9] = biological target: T1, canine PD-1 protein amino acids 25-168 …; assay: kinetics, global fit over the PD-1 His series 1.1-1000.0 nM
# [10] = biological target: T2, PD1 on the surface of T cells (canine PBMC stimulated with ConA) (canine, UniProt A0A090BAM7 25-288); assay: flow cytometry, ConA-stimulated canine PBMC, CD3-FITC and PE-labeled anti-canine IgG
# T2 construct: also called canine PD-1
# Procedure: (§1) The cells were stimulated by 0.5 μg/mL ConA for 3 days, and collected. PBMC was incubated with canine-anti-CD3-FITC and caninized monoclonal antibodies C1, C3 and C11 respectively. Then the cells were incubated again with PE-labeled canine-IgG antibody. […] Moreover, the results also indicate that the caninized monoclonal antibodies C1, C3 and C11 have potential blocking effect on the PD1/PD-L1 signaling pathway, and thus have protective effect on the function of T cells (see FIG. 14).
# [11] = biological target: T2, PD1 on the surface of T cells (canine …); assay: flow cytometry on ConA-stimulated canine PBMC, stained with anti-CD3-FITC and the caninized antibody, detected with PE-labeled anti-canine IgG; quadrant plot FITC against PE; no unstained or isotype control shown
# Procedure: as §1
# [12] = biological target: T1, canine PD-1 protein amino acids 25-168 …; assay: ELISA, PD-1 His 100 ng/mL, clone supernatant
# [13] = biological target: T1, canine PD-1 protein amino acids 25-168 …; assay: Octet BLI, supernatant captured by anti-mouse IgG Fc, PD-1 His 20 nM
# Procedure: Octet BMIA was used to determine the affinity of the supernatant of the PD-1A clone culture to PD-1 His. Anti-mouse IgG Fc was added to each clone supernatant to capture competence factors.
# PD1-Fc [14] = biological target: T3, PD1-Fc (canine, UniProt A0A090BAM7 25-168); assay: Octet BLI competition, competitor PD-L1 Fc on AHC sensor, against PD1 Fc only
# T3 construct: also called Only Ag (PD1 Fc)
# Procedure: (§2) D-L1 Fc ([…]) was loaded on an AHC sensor for cross-linking assay. Epitope analysis was used to determine the binding of antibodies loaded on the sensor to recombinant antibodies preincubated with PD1-Fc. The binding (response) degrees observed were compared to that of antigen only under the same conditions. If the total response of an antibody was higher than that of antigen only, the antibody would be matched. If the response of an antibody was lower than 80% of that of antigen, the antibody would be blocked with each other.
# PD1-Fc [15] = biological target: T3, PD1-Fc; assay: Octet BLI competition, competitor PD-L1 Fc on AHC sensor, PD1 Fc 50 nM preincubated with supernatant 1/2
# Procedure: as §2
# T2 sequence (A0A090BAM7 entry or part of it limits assumed): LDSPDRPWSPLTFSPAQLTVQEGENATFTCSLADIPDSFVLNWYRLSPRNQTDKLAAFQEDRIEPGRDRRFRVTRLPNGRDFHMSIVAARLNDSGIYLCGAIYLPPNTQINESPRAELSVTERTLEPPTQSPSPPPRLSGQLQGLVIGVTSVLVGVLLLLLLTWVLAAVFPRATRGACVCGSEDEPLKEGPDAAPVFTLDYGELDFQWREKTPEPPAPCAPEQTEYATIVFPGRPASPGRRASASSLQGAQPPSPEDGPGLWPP
# T1 sequence (A0A090BAM7 entry or part of it limits assumed): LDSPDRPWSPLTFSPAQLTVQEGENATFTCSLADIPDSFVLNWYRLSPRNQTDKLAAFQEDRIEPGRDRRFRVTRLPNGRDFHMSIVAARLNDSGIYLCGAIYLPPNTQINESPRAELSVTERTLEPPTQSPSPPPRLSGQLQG
binder,measurement,setting,value
B1,Response (nm),[1],-0.031 nm
same,Kd,[2],18.4 nM
same,Response (nm),[2],0.005 nm
same,koff,[2],1.27 s⁻¹
same,kon,[2],6.93e+07 M⁻¹ s⁻¹
same,Kd,[3],2.46 nM
same,Response (nm),[3],0.001 nm
same,koff,[3],0.0198 s⁻¹
same,kon,[3],8.05e+06 M⁻¹ s⁻¹
same,Kd,[4],2.65 nM
same,Response (nm),[4],0.008 nm
same,koff,[4],0.00953 s⁻¹
same,kon,[4],3.6e+06 M⁻¹ s⁻¹
same,Kd,[5],2.06 nM
same,Response (nm),[5],0.016 nm
same,koff,[5],0.000886 s⁻¹
same,kon,[5],430000 M⁻¹ s⁻¹
same,Response (nm),[6],-0.004 nm
same,Response (nm),[7],0.001 nm
same,Kd,[8],1.59 nM
same,koff,[8],0.401 s⁻¹
same,kon,[8],2.51e+08 M⁻¹ s⁻¹
same,Kd,[9],1.59 nM
same,koff,[9],0.401 s⁻¹
same,kon,[9],2.51e+08 M⁻¹ s⁻¹
same,PD1 positive cells in T cells,[10],94.6%
same,"% of cells in quadrant Q2 (Comp-FITC-A positive, Comp-PE-A positive)",[11],57.9%
B2,Response (nm),[1],0.002 nm
same,Response (nm),[2],0.009 nm
same,Response (nm),[3],0.005 nm
same,Kd,[4],< 0.001 nM
same,Response (nm),[4],0.017 nm
same,koff,[4],< 1e-07 s⁻¹
same,kon,[4],40500 M⁻¹ s⁻¹
same,Kd,[5],< 0.001 nM
same,Response (nm),[5],0.026 nm
same,koff,[5],< 1e-07 s⁻¹
same,kon,[5],14700 M⁻¹ s⁻¹
same,Kd,[6],< 0.001 nM
same,Response (nm),[6],0.01 nm
same,koff,[6],< 1e-07 s⁻¹
same,kon,[6],1760 M⁻¹ s⁻¹
same,Kd,[7],< 0.001 nM
same,Response (nm),[7],0.007 nm
same,koff,[7],< 1e-07 s⁻¹
same,kon,[7],330 M⁻¹ s⁻¹
same,Kd,[8],< 0.001 nM
same,koff,[8],< 1e-07 s⁻¹
same,kon,[8],626 M⁻¹ s⁻¹
same,Kd,[9],< 0.001 nM
same,koff,[9],< 1e-07 s⁻¹
same,kon,[9],626 M⁻¹ s⁻¹
same,PD1 positive cells in T cells,[10],96.2%
same,"% of cells in quadrant Q2 (Comp-FITC-A positive, Comp-PE-A positive)",[11],53.1%
B3,O.D. determined by ELISA,[12],2.34
same,Kd,[13],10.4 nM
same,Response (nm),[13],0.068 nm
same,koff,[13],0.000608 s⁻¹
same,kon,[13],58500 M⁻¹ s⁻¹
same,% response,PD1-Fc [14],-8.21%
same,Response (nm),PD1-Fc [15],-0.005 nm
B4,O.D. determined by ELISA,[12],2.58
same,Kd,[13],0.537 nM
same,Response (nm),[13],0.061 nm
same,koff,[13],0.000159 s⁻¹
same,kon,[13],296000 M⁻¹ s⁻¹
same,% response,PD1-Fc [14],-0.47%
same,Response (nm),PD1-Fc [15],0 nm
B5,O.D. determined by ELISA,[12],2.87
same,Kd,[13],< 0.001 nM
same,Response (nm),[13],0.041 nm
same,koff,[13],< 1e-07 s⁻¹
same,kon,[13],174000 M⁻¹ s⁻¹
same,% response,PD1-Fc [14],-5%
same,Response (nm),PD1-Fc [15],-0.002 nm
B6,O.D. determined by ELISA,[12],2.83
same,Kd,[13],0.0306 nM
same,Response (nm),[13],0.044 nm
same,koff,[13],6.96e-06 s⁻¹
same,kon,[13],227000 M⁻¹ s⁻¹
same,% response,PD1-Fc [14],12%
same,Response (nm),PD1-Fc [15],0.006 nm
B7,O.D. determined by ELISA,[12],2.66
same,Kd,[13],0.903 nM
same,Response (nm),[13],0.049 nm
same,koff,[13],0.000312 s⁻¹
same,kon,[13],346000 M⁻¹ s⁻¹
same,% response,PD1-Fc [14],-16%
same,Response (nm),PD1-Fc [15],-0.008 nm
B8,O.D. determined by ELISA,[12],2.65
same,Kd,[13],144 nM
same,Response (nm),[13],0.049 nm
same,koff,[13],0.00044 s⁻¹
same,kon,[13],3060 M⁻¹ s⁻¹
same,% response,PD1-Fc [14],-21.9%
same,Response (nm),PD1-Fc [15],-0.009 nm
